45 sequences from the supplement of paper PMC9233669 can be followed below.

One data set relates to biotinyl-Phe-oxazolone. Kind of data set: self-aminoacylation, catalytic enhancement (BFO) (fold over background); higher = more active; k-Seq, kA / k0A0; sequences stand for … in GGGAAUGGAUCCACAUCUACGAAUUC…UUCACUGCAGACUUGACGAAGCUG
In short, it runs like this: (§1)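 Each biotinyl-aminoacyl-oxazolone, at 2–1250 μM, was incubated with mutagenized RNA pools (0.43 μM) carrying a 21-nt variable region. The 50 μL reactions contained HEPES/NaCl/KCl/MgCl2/CaCl2 buffer with 5% acetonitrile at pH 6.9–7.0 and ran for 90 minutes at room temperature. After streptavidin capture, RNA was measured by qPCR in triplicate and by Illumina sequencing, and catalytic enhancement was calculated as median kA over the uncatalyzed rate from a pseudo-first-order fit of per-sequence fraction reacted.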

The subject of another data set is biotinyl-Trp-oxazolone. Kind of data set: self-aminoacylation, catalytic enhancement (BWO) (fold over background); higher = more active; k-Seq, kA / k0A0; sequences stand for … in GGGAAUGGAUCCACAUCUACGAAUUC…UUCACUGCAGACUUGACGAAGCUG
In short, it runs like this: as §1

Variants at the floor of the assay were thinned out.

For the sequence “AAACACUUCAAGCAAUCGGUC [Fam1B.1 aminoacylation ribozyme variant]”, the self-aminoacylation with biotinyl-Phe-oxazolone stood at 18; in the data set on biotinyl-Trp-oxazolone, 11.9. Take “AAAUUUGCUAAUAUUCGCAAG [Fam3.1 aminoacylation ribozyme variant]”: the self-aminoacylation with biotinyl-Trp-oxazolone is 2.01. On the same count and under the same terms, in the case of “AAGAUUGCUAAUAGGCGCAAG [Fam3.1 aminoacylation ribozyme variant]” it was 2.61. Regarding “AAGUAUGCUAAAAGUCGCAAG [Fam3.1 aminoacylation ribozyme variant]”, the self-aminoacylation was found to be 8.97 with biotinyl-Phe-oxazolone and 3.97 in the data set on biotinyl-Trp-oxazolone.

Take “AAGUAUGCUAAUAGUCGUAAG [Fam3.1 aminoacylation ribozyme variant]”: the self-aminoacylation with biotinyl-Phe-oxazolone worked out at 33.1; with biotinyl-Trp-oxazolone, 8.96. The matching figures for “AAGUCGGCUAAUAGUCGCAAG [Fam3.1 aminoacylation ribozyme variant]”: 9.73 and 4.2. The matching figures for “AAGUGUGCUAAUAGUCGGAAG [Fam3.1 aminoacylation ribozyme variant]”: 11 and 3.96. For “AAGUUAGCUAAUCGUCGCAAG [Fam3.1 aminoacylation ribozyme variant]”, the self-aminoacylation in the data set on biotinyl-Trp-oxazolone is 2.21. Turning to “AAGUUCGCUAAUAGUCGUAAG [Fam3.1 aminoacylation ribozyme variant]”, the self-aminoacylation was determined as 13.7 in the data set with biotinyl-Phe-oxazolone and 4.33 in the data set with biotinyl-Trp-oxazolone. Regarding “AAGUUGGCUAAUAGUCACAAG [Fam3.1 aminoacylation ribozyme variant]”, in the data set on biotinyl-Trp-oxazolone, the self-aminoacylation came out at 2.29. With “AAGUUGGCUAAUAGUCGCAAA [Fam3.1 aminoacylation ribozyme variant]”, the self-aminoacylation with biotinyl-Phe-oxazolone came to 2.83; with biotinyl-Trp-oxazolone, 2.03. The matching figures for “AAGUUUGAUUAUAGUCGCAAG [Fam3.1 aminoacylation ribozyme variant]”: 2.29 and 2.07. “AAGUUUGCUAAGAGUCGCCAG [Fam3.1 aminoacylation ribozyme variant]”: in the data set on biotinyl-Trp-oxazolone, the self-aminoacylation was found to be 2.06. With “AAGUUUGCUAAUAGUCGCGAA [Fam3.1 aminoacylation ribozyme variant]”, the self-aminoacylation in the data set with biotinyl-Phe-oxazolone was 6.39; in the data set on biotinyl-Trp-oxazolone it was 3.37. As to “AAGUUUGCUAAUUGUCGCAAC [Fam3.1 aminoacylation ribozyme variant]”, in the data set with biotinyl-Trp-oxazolone, the self-aminoacylation came to 2.13. With “AAGUUUGCUCAUAGUCGUAAG [Fam3.1 aminoacylation ribozyme variant]”, the self-aminoacylation in the data set on biotinyl-Phe-oxazolone was found to be 14.6; in the data set on biotinyl-Trp-oxazolone, 3.67. For “AAUUUUGCUAAUAGUCGCUAG [Fam3.1 aminoacylation ribozyme variant]”, in the data set with biotinyl-Trp-oxazolone, the self-aminoacylation was 2.24. For the sequence “ACACACUUCAAGUAAUCGGUC [Fam1B.1 aminoacylation ribozyme variant]”, the self-aminoacylation worked out at 7.88 in the data set with biotinyl-Phe-oxazolone and 6 with biotinyl-Trp-oxazolone. As to “ACAUACUUCAAGCAAUCGGUC [Fam1B.1 aminoacylation ribozyme variant]”, the self-aminoacylation in the data set with biotinyl-Phe-oxazolone worked out at 10.3; in the data set on biotinyl-Trp-oxazolone, 5.65. The like results for “AGGUAUGCUAAUAGUCGCAAG [Fam3.1 aminoacylation ribozyme variant]” were, in that order, 9.64 and 3.41. “AUAAUUCAAACAAUCGGUCUG [Fam1A.1 aminoacylation ribozyme variant]”: the self-aminoacylation stood at 4.88 with biotinyl-Phe-oxazolone and 2.97 in the data set with biotinyl-Trp-oxazolone. The like results for “AUUACCCUGGCCGUCGAGUGA [Fam2.1 aminoacylation ribozyme variant]” were, in that order, 2.1 and 2.4. In the case of “AUUCACCUAGGUCAUUAGGUG [Fam2.2 aminoacylation ribozyme variant]”, the self-aminoacylation in the data set on biotinyl-Trp-oxazolone is 2.24. “AUUCACCUAGGUUAUCGGGUU [Fam2.2 aminoacylation ribozyme variant]”: the self-aminoacylation in the data set with biotinyl-Phe-oxazolone came out at 5.07; in the data set with biotinyl-Trp-oxazolone it was 2.04.

For the sequence “CAAAACUUCAAGCAAUCGGUC [Fam1B.1 aminoacylation ribozyme variant]”, the self-aminoacylation with biotinyl-Phe-oxazolone came to 15.2; in the data set with biotinyl-Trp-oxazolone, 10.6. The matching figures for “CCAAACUUCAAGGAAUCGGUC [Fam1B.1 aminoacylation ribozyme variant]”: 5.98 and 5.42. The matching figures for “CCAAUCUUCAAGCAAUCGGUC [Fam1B.1 aminoacylation ribozyme variant]”: 18.1 and 10.7. The matching figures for “CCACAAUUCAAUCAAUCGGUC [Fam1B.1 aminoacylation ribozyme variant]”: 10.8 and 5.08. For “CCACACUCCAAUCAAUCGGUC [Fam1B.1 aminoacylation ribozyme variant]”, the self-aminoacylation worked out at 5.95 in the data set with biotinyl-Phe-oxazolone and 3.48 with biotinyl-Trp-oxazolone.

Consider “CCACACUUCAAAAAAUCGGUC [Fam1B.1 aminoacylation ribozyme variant]”, for which the self-aminoacylation with biotinyl-Phe-oxazolone came to 18.2; in the data set with biotinyl-Trp-oxazolone it was 14.5. As for “CCACACUUCAAACAAUCGGGC [Fam1B.1 aminoacylation ribozyme variant]”, the self-aminoacylation in the data set with biotinyl-Trp-oxazolone was found to be 2.65.

For “CCACACUUCAACAAAUCGGUC [Fam1B.1 aminoacylation ribozyme variant]”, the self-aminoacylation turned out to be 11.5 in the data set with biotinyl-Phe-oxazolone and 7.95 in the data set on biotinyl-Trp-oxazolone.

“CCACACUUCAAGGAAUCGGUC [Fam1B.1 aminoacylation ribozyme variant]”: the self-aminoacylation in the data set on biotinyl-Phe-oxazolone stood at 8.21; in the data set with biotinyl-Trp-oxazolone, 6.13. In the case of “CUACGUCAAAGAAUCGGUCUG [Fam1A.1 aminoacylation ribozyme variant]”, the self-aminoacylation with biotinyl-Phe-oxazolone was determined as 3.41. For the sequence “CUACGUCAACCAAUCGGUCUG [Fam1A.1 aminoacylation ribozyme variant]”, the self-aminoacylation in the data set with biotinyl-Phe-oxazolone came out at 3.4.

Take “CUACUUCAAACAAUCACUCUG [Fam1A.1 aminoacylation ribozyme variant]”: the self-aminoacylation with biotinyl-Phe-oxazolone was 2.98.

Consider “CUACUUCAAACACCCGGUCUG [Fam1A.1 aminoacylation ribozyme variant]”, for which the self-aminoacylation with biotinyl-Trp-oxazolone was determined as 2.08. For the sequence “CUACUUGAAACAAGCGGUCUG [Fam1A.1 aminoacylation ribozyme variant]”, the self-aminoacylation in the data set with biotinyl-Phe-oxazolone worked out at 4.76.

With “CUUACCCUGGUCGUCGAGUGA [Fam2.1 aminoacylation ribozyme variant]”, the self-aminoacylation in the data set on biotinyl-Phe-oxazolone worked out at 5.47.

Consider “GAGGUUGCUAAUAGUCGCAAG [Fam3.1 aminoacylation ribozyme variant]”, for which the self-aminoacylation in the data set on biotinyl-Phe-oxazolone worked out at 3.14. For the sequence “GAGUUUGCUAAGAGUCGCAAG [Fam3.1 aminoacylation ribozyme variant]”, the self-aminoacylation with biotinyl-Phe-oxazolone is 3.01. On the same count and under the same terms, the value for “UAGUUUGCUAAUAGUCGCAUG [Fam3.1 aminoacylation ribozyme variant]” was 3.23. For “UAGUUUGCUAAUAGUCUCAAG [Fam3.1 aminoacylation ribozyme variant]”, the self-aminoacylation with biotinyl-Phe-oxazolone worked out at 3.9.

As to “UUACUGCAAACAAUCGGUCUG [Fam1A.1 aminoacylation ribozyme variant]”, the self-aminoacylation in the data set with biotinyl-Phe-oxazolone was 4.6. Same read-out and setting: the value for “UUACUUCGAACAAUCGGUCUG [Fam1A.1 aminoacylation ribozyme variant]” was 2.19.
